Assay results as given in paper doi:10.1101/2023.08.07.552313 (bioRxiv, 2023).

Target: NEIL1 DNA glycosylase (Homo sapiens (; the 390 aa …, UniProt Q96FI4)
Experiment: two-hybrid

Sequence of NEIL1 DNA glycosylase (Homo sapiens (Q96FI4 whole entry): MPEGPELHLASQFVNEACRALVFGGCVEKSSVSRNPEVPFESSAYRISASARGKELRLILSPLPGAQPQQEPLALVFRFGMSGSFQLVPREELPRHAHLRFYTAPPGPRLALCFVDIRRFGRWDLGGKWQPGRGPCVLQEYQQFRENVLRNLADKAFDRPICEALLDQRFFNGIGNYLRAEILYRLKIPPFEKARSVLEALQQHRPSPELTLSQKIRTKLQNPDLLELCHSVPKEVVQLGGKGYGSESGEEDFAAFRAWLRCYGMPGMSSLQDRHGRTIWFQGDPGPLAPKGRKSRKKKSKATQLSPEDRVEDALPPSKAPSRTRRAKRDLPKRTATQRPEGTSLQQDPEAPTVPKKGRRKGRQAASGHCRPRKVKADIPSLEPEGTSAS

- binding result: binds
B1: A5 nanobody (anti-NEIL1 nanobody) (VHH)
VHH: EVQLQASGGGFVQPGGSLRLSCAASGATSERDIMGWFRQAPGKEREFVSAISYEPGGWHYYADSVKGRFTISRDNSKNTVYLQMNSLRAEDTATYYCAWQEIMYGEAYWRYWGQGTQVTVSS
